According to US20200392528A1, “IMPROVED PLANT EPSP SYNTHASES AND METHODS OF USE” (PIONEER HI-BRED INTERNATIONAL, INC., priority 2017, published 2020):
Substitutions are numbered along the chain they refer to. Where two headings read alike, the source gives them in different places.

B1: Os F3-88: rice EPSPS ortholog of Zm F3-88, SEQ ID NO: 19 (protein, listed as Oryza sativa)
chain: MAKAEEIVLQPIREISGAVQLPGSKSLSNRILLLSALSEGTTVVDNLLNSEDVGYMLEALKALGLSVEADKVAKRAVVVGCGGKFPVEKDAKEEVQLFCGNAATAMRPLTAAVTAAGGNATYVLDGVPRMRERPIGDLVVGLKQLGADVDCFLGTECPPVRVKGIGGLPGGKVKLSGSISSQYLSALLMAAPLALGDVEIEIIDKLISIPYVEMTLVLMERFGVKAYHSDSWDRFYIKGGQKYKSPGNAYVEGDASSASYFLAGAAITGGTVTVQGCGTTSLQGDVKFAEVLEMMGAAVTWTDTSVTVTGPPREPYGKKHLKAVDVNMNKMPDAAMTLAVVALFADGPTAIRDVASWRVKESERMVAIRTELTKLGASVEEGPDYCIITPPEKLNITAIDTYGDHRMAMAFSLAACADVPVTIRDPGCTAKTFPNYFDVLSTFVRN
B2: Zm D2-3P124: maize EPSPS variant, SEQ ID NO: 3; D2-124 has 18 mutations (protein)
chain: MRKWEEIVLQPIKEISGTVKLPGSKSLSNRILLLAALSEGTTVVDNLLNSEDVGYMLGALRTLGLSVEHDEAAKRAVVVGCGGRFPVEDAKGEVQLFCGNAATAMRPLTAAVTAAGGNATYVLDGVPRMRERPIGDLVVGLKQLGADVDCFLGTDCPPVRVNGIGGLPGGKVKLSGSISSQYLSALLMAAPLALGDVEIEIIDKLISLPYVEMTLRLMERFGVRAEHSDSWDRFYIKGGQKYESPKNAYVEGDASSASYFLAGAAITGGTVTVEGCGTTSLQGDVKFAEVLEMMGAKVTWTETSVTVTGPPREPFGRKHLKAIDVNMNKMPDAAMTLAVVALFADGPTAIRDVGSWRVKETERMVAIRTELTKLGASVEEGPDYCIITPPPKLNVTAIDTYGDHRMAMAFSLAACGEVPVTIRDPGCTRKTFPDYFDVLSTFVKN
modifications: Zea mays
notes: D2-124 has 18 mutations
B3: Zm D2c-A5: maize EPSPS variant with 21 mutations, SEQ ID NO: 59 (protein)
chain: B2 chain with R2S, N162R, M293L, E302P
modifications: Zea mays
B4: Zm F3: maize EPSPS variant, SEQ ID NO: 11 (protein)
chain: MAGAEEIVLQPIKEISGTVKLPGSKSLSNRILLLAALSEGTTVVDNLLNSEDVHYMLGALRTLGLSVEADKAAKRAVVVGCGGKFPVEDAKEEVQLFCGNAATAMRPLTAAVTAAGGNATYVLDGVPRMRERPIGDLVVGLKQLGADVDCFLGTDCPPVRVNGIGGLPGGKVKLSGSISSQYLSALLMAAPLALGDVEIEIIDKLISIPYVEMTLRLMERFGVKAEHSDSWDRFYIKGGQKYKSPKNAYVEGDASSASYFLAGAAITGGTVTVEGCGTTSLQGDVKFAEVLEMMGAKVTWTETSVTVTGPPREPFGRKHLKAIDVNMNKMPDVAMTLAVVALFADGPTAIRDVASWRVKESERMVAIRTELTKLGASVEEGPDYCIITPPEKLNVTAIDTYGDHRMAMAFSLAACAEVPVTIRDPGCTRKTFPDYFDVLSTFVKN
modifications: Zea mays
B5: Zm F3-88: maize EPSPS variant, SEQ ID NO: 12 (protein)
chain: B4 chain with H54G, R216V, E226Y, K297A, V333A, R429A
modifications: Zea mays
B6: Os D2-67: rice EPSPS ortholog of Zm D2-67, SEQ ID NO: 17 (protein, listed as Oryza sativa)
chain: MRKWEEIVLQPIREISGAVQLPGSKSLSNRILLLSALSEGTTVVDNLLNSEDVHYMLEALKALGLSVEHDKVAKRAVVVGCGGRFPVEKDAKGEVQLFCGNAATAMRPLTAAVTAAGGNATYVLDGVPRMRERPIGDLVVGLKQLGADVDCFLGTECPPVRVKGIGGLPGGKVKLSGSISSQYLSALLMAAPLALGDVEIEIIDKLISLPYVEMTLRLMERFGVKAEHSDSWDRFYIKGGQKYESPGNAYVEGDASSASYFLAGAAITGGTVTVQGCGTTSLQGDVKFAEVLEMMGAKVTWTDTSVTVTGPPREPYGKKHLKAVDVNMNKMPDAAMTLAVVALFADGPTAIRDVASWRVKETERMVAIRTELTKLGASVEEGPDYCIITPPPKLNITAIDTYGDHRMAMAFSLAACADVPVTIRDPGCTRKTFPNYFDVLSTFVRN
B7: Os D2: rice EPSPS ortholog of Zm D2, SEQ ID NO: 16 (protein, listed as Oryza sativa)
chain: B6 chain
B8: Os F3: rice EPSPS ortholog of Zm F3, SEQ ID NO: 18 (protein, listed as Oryza sativa)
chain: B1 chain with G54H, V217R, Y227E, A298K, A334V, A430R

How the values were obtained:
rice EPSPS = assay: kcat gly: enzyme turnover under application conditions, rice orthologs; type: biochemical, rice (Oryza sativa); details: Table 5
Description: (§1) A more straight-forward, accurate and meaningful parameter is one in which one rate measurement is performed under presumed in vivo conditions, if known. To establish a set of conditions that mimic those under which the mutated enzyme needs to perform, the concentrations of PEP and S3P were set low (30 uM, subject to the sensitivity of assay conditions) to approach the presumed intracellular concentrations (˜15 uM, the approximate values of KM for both PEP and S3P). Glyphosate is included at 1 mM. The pH is set at 7.0 and ionic strength at 100 mM KCl, also to mimic known in vivo conditions. Ethylene glycol is present at 5% (v/v) to approximate the dielectric constant of intracellular fluid. The parameter is termed “enzyme turnover under application conditions”, which is herein shortened to “kcat gly”. The conventional formatting of the expression “kcat” is not used, to avoid this term being characterized as a standard kinetic constant.
(§2) EPSPS activity was determined by quantifying the phosphate generated from the EPSPS reaction. Release of inorganic phosphate was coupled to its reaction with 2-amino-6-mercapto-7-methylpurine ribonucleoside (MESG), catalyzed by purine nucleoside phosphorylase, according to previously described protocols. To determine the kcat gly, enzyme preparations were normalized to 0.1 mg/ml and four- to six-microliter aliquots of normalized enzyme were added to the wells of a low UV-absorbing 96-well assay plate (Greiner UV-Star). Reactions were started with the addition of 2×147 μl of reaction mixture containing 25 mM Hepes, pH 7.0, 100 mM KCl, 5% ethylene glycol, 30 μM each of PEP and S3P, 0.15 mM MESG, 1.5 U/ml purine nucleoside phosphorylase (Sigma N8264) and 1 mM glyphosate. Absorbance was monitored at 4 sec intervals for 50 sec with a Spectramax plate reader (Molecular Devices). […] Division by the enzyme concentration (0.04 to 0.1 uM, depending on activity) yields “kcat gly” in units of min^−1.
Only variable positions are shown. Naturally occurring differences in the rice sequence from the maize sequence are shown. The mutations designed to create rice orthologs of selected maize variants are shown. Genes designed to encode the rice orthologs were synthesized by a commercial provider and expressed and purified as described above.
Fitness is indicated by the parameter kcat gly, defined in Example 1.

maize EPSPS [1] = assay: kcat gly / kgly: enzyme turnover under application conditions (30 μM PEP and S3P, 1 mM glyphosate), phosphate release coupled to MESG; type: biochemical; details: for kgly: enzyme turnover at 30 μM PEP and S3P; for Zm/Os: ratio of kcat gly, maize variant to rice ortholog
Description: as §1, §2
(§3) Approximately 30 substitutions were designed into each library. Assuming an average incorporation rate of six substitutions per variant, the theoretical size of such libraries is ˜7×10^5. Libraries were screened using methods described previously and the enhanced method described in Example 2. The number of colony-forming units plated and screened was in the range of 50 to 100% of the theoretical size. Up to 200 colonies per library were picked for evaluation of the expressed variant. Proteins were purified as described previously in PCT/US2016/054399, incorporated herein by reference. Protein concentration was determined by measuring optical density at 280 nm. The extinction coefficient of native maize EPSPS (0.676 OD/mg/ml) was calculated by vNTI and used to convert OD280 to mg/ml. Kinetic parameters were determined as described in Example 1.
A customized parameter for predicting performance in the treated plant that would be a more accurate representation than kcat/Km*Ki. […] However, kcat/Km*Ki may be inadequate for predicting the reaction velocity under the conditions of the application (plants sprayed with glyphosate) because it may neglect concentrations of substrate and inhibitor, factors that are not intrinsic to the enzyme, but on which the reaction rate depends. Therefore, libraries derived from C1 on in FIG. 2 were evaluated with a single rate measurement designed to take all factors in the rate equation for competitive inhibition into account. […] Glyphosate was included at 1 mM, a concentration attainable in tissues, especially meristems, receiving metabolite flow from treated leaves. The pH (7.0), ionic strength (100 mM KCl) and co-solvent concentration (5% ethylene glycol) were also intended to mimic in vivo conditions. The unit for the parameter is reaction rate (μM·min^−1) per enzyme concentration (μM), or min^−1, describing the enzyme turnover under application conditions, which we abbreviate as “kgly”. […]

maize EPSPS [2] = assay: substrate saturation kinetic analysis (kcat, KM PEP, KI glyphosate); type: biochemical; details: for KI/KM: discrimination between glyphosate and PEP; for kcat/Km*Ki: calculated with Km for PEP
Description: as §2, §3
Combinatorial shuffling, maize native EPSPS—The mutations discovered were used to construct a combinatorial library designed to explore combinations of the desensitizing mutations in novel sequence contexts provided by the newly identified neutral mutations. Note that the amino acid position numbering in this Example 10 refers to the relative position of native maize EPSPS without the N-terminal Met. Therefore, G101A in this Example would be G102A in reference to SEQ ID NO: 1, wherein the maize EPSPS sequence has a Met added at the N-terminal. The diversity used was the same with the addition of G101A, T102 (IALGV) and P106(WA). In all, 43 substitutions at 29 positions were selected. The library was synthesized entirely from oligonucleotides, using the known technique of synthetic shuffling and was termed NatFS (Native, fully synthetic). The vector DNA of the library was transformed into the BL21(DE3) Tuner-AroA knockout strain and the cells were plated onto M9 medium containing either 30 mM glyphosate and 30 μM of the lac operon inducer isopropyl β-D-1-thiogalactopyranoside (IPTG) or 50 mM glyphosate and no IPTG. The 184 colonies that grew on either plate were picked and subjected to a second tier of screening in which EPSPS proteins were purified and activity measured at high (200 μM) and low (50 μM) PEP and S3P, with or without 10 μM glyphosate. Selected variants were subjected to substrate saturation kinetic analysis.

[3] = Table 2, 30 μM PEP and S3P, 1 mM glyphosate, pH 7.0
[4] = Table 2, KM for PEP, read-out: KM
[5] = apparent Km, PEP present at 10 times its Km, read-out: Km S3P
[6] = apparent Km, S3P present at 10 times its Km, read-out: Km PEP

| Molecule | kcat gly (rice EPSPS) [s⁻¹] | kcat gly (maize EPSPS [1]; [3]) [min⁻¹] | kcat (maize EPSPS [2]; Table 2) [s⁻¹] | kcat/KM*KI (maize EPSPS [2]; Table 2) | Km (maize EPSPS [2]; [4]) [µM] | KI/KM (maize EPSPS [2]; Table 2) | Ki (maize EPSPS [2]; Table 2, inhibitor glyphosate) [µM] | also measured |
| --- | --- | --- | --- | --- | --- | --- | --- | --- |
| B1 | 1.04 |  |  |  |  |  |  |  |
| B2 |  | 132 | 9.88 | 22710 | 34.7 | 38.3 | 1330 | kgly (maize EPSPS [1]; 1 mM glyphosate): 175 ± 2.5 min⁻¹; Ki (maize EPSPS [2]; Ki for glyphosate): 893 ± 53 µM; Km (maize EPSPS [2]; [5]): 11.1 ± 0.7 µM; Km (maize EPSPS [2]; [6]): 18.1 ± 0.7 µM; kcat/Km*Ki (maize EPSPS [2]): 31130; kcat (maize EPSPS [2]; maize EPSPS variants): 10.5 ± 0.083 s⁻¹ |
| B3 |  |  |  |  |  |  |  | kcat gly (maize EPSPS [1]; D2c variants with substitutions relative to D2-124, no unit in table (kcat gly given in min^−1)): 156; kgly (maize EPSPS [1]; 1 mM glyphosate): 186 ± 4.7 min⁻¹; Ki (maize EPSPS [2]; Ki for glyphosate): 839 ± 40 µM; Km (maize EPSPS [2]; [5]): 12.6 ± 1.4 µM; Km (maize EPSPS [2]; [6]): 18.1 ± 0.6 µM; kcat/Km*Ki (maize EPSPS [2]): 34350; kcat (maize EPSPS [2]; maize EPSPS variants): 12.4 ± 0.1 s⁻¹ |
| B4 |  | 39.3 | 7.87 | 7280 | 71.5 | 15.4 | 1100 | kcat gly (maize EPSPS [1]; Table 5, maize variants): 45.2 min⁻¹; Zm/Os (maize EPSPS [1]; Table 5): 1.16 |
| B5 |  | 85.7 | 11.6 | 29600 | 55.6 | 44.0 | 2440 | kcat gly (maize EPSPS [1]; Table 5, maize variants): 98 min⁻¹; Zm/Os (maize EPSPS [1]; Table 5): 1.57 |
| B6 | 1.7 |  |  |  |  |  |  |  |
| B7 | 1.48 |  |  |  |  |  |  |  |
| B8 | 0.65 |  |  |  |  |  |  |  |
